This note sets out measurements from publication PMC6404975.

One data set addresses glucagon (UniProt P01275 53-81). Nature of the data set: electrochemical aptamer-based sensor.
Data set [1] concerns the target insulin (bovine pancreas) (Bos taurus, UniProt P01317;P01317 25-54;85-105). As to the kind of experiment: electrochemical aptamer-based sensor.

Sequence of insulin (bovine pancreas) (P01317 25-54, chain 1 of 2): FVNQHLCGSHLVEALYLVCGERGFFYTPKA
Sequence of insulin (bovine pancreas) (P01317 85-105, chain 2 of 2): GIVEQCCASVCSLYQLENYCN
Sequence of glucagon (P01275 53-81): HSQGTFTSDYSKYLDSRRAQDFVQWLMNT

Usually Kd stands for the free concentration of one partner at which half of the binding sites on the other are occupied at equilibrium, for simple one-to-one binding. Take AAAAGGTGGTGGGGGGGGTTGGTAGGGTGTCTTCT (structured_DNA, 5' thiol-C6 (immobilised on gold); 3' methylene blue) [Insulin-End (IGA3)]: the binding result with glucagon is given as “no binding”. In data set [1], this molecule came in with a Kd of 240 ± 65 nM.
